The record followed here is PMC12136792, “ADP ribosylation factor–like GTPase 6–interacting protein 5 (Arl6IP5) is an ER membrane-shaping protein that modulates ER-phagy” (The Journal of Biological Chemistry, 2025).

This data set concerns the molecule itself. Nature of the data set: SDS-PAGE and immunoblot without cross-linker (SDS-resistant dimer); same membrane fraction of COS-7 cells transfected with HA-Arl6IP5, without BS3; anti-HA immunoblot. For orientation: Immunoblotting shows a protein as a band on a membrane.

B1: HA-tagged Arl6IP5 (ADP ribosylation factor-like GTPase 6-interacting protein 5) (natural protein, human, UniProt O75915 1-188, looked up)
chain: MDVNIAPLRAWDDFFPGSDRFARPDFRDISKWNNRVVSNLLYYQTNYLVVAAMMISIVGFLSPFNMILGGIVVVLVFTGFVWAAHNKDVLRRMKKRYPTTFVMVVMLASYFLISMFGGVMVFVFGITFPLLLMFIHASLRLRNLKNKLENKMEGIGLKRTPMGIVLDALEQQEEGINRLTDYISKVKE
notes: Arl6IP5, human, cDNA in pCMV vector with N-terminal HA tag; ER membrane protein; tested in the membrane fraction, not solubilised; also called HA-Arl6IP5; PRAF3; source: COS-7, transfected (PEI), crude membrane fraction; not shown: HA, N-terminal, kept
One may read the stoichiometry N as the number of molecules, sites or subunits per partner or assembly. With B1, the “stoichiometry N” value was 2.
